From paper PMC9282385, “Rapid self-test of unprocessed viruses of SARS-CoV-2 and its variants in saliva by portable wireless graphene biosensor”

Key:
[1] = target: SARS-CoV nucleocapsid protein (SARS-CoV, UniProt P59595 1-422); test: […], room temperature; pH not stated; conditions: protein: commercial; chain copies: 2
[2] = target: SARS-CoV-2 spike RBD (SARS-CoV-2, UniProt P0DTC2 319-541)
[3] = target: SARS-CoV spike RBD (SARS-CoV, UniProt P59594 306-527); test: […], room temperature; pH not stated; conditions: protein: commercial

Sequence of SARS-CoV nucleocapsid protein (P59595 whole entry): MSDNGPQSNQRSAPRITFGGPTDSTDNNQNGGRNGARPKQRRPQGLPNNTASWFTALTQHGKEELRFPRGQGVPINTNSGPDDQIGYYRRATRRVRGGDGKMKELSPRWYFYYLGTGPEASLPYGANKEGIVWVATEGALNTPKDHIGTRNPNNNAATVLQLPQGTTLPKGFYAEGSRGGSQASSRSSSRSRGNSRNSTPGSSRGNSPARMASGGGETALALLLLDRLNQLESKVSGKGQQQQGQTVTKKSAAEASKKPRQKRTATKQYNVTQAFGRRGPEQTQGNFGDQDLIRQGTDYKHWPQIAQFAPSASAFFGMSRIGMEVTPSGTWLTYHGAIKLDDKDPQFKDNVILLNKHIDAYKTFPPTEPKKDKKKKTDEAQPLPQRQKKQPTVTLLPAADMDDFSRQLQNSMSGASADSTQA

B1: Aptamer-N (structured_DNA)
DNA: GCTGGATGTCGCTTACGACAATATTCCTTAGGGGCACCGCTACATTGACACATCCAGC
binding result [1]: binds

B2: Aptamer-S (structured_DNA)
DNA: CAGCACCGACCTTGTGCTTTGGGAGTGCTGGTCCAAGGGCGTTAATGGACA
binding result [2]: binds
binding result [3]: binds
